Test results published in patent publication US20080063635A1 (Kyowa Kirin, published 2008).

B1: 4D11-G[1/1/4/4] (antibody, V domains shown)
VH: QLQLQESGPGLLKPSETLSLTCTVSGGSISSPGYYGGWIRQPPGKGLEWIGSIYKSGSTYHNPSLKSRVTISVDTSKNQFSLKLSSVTAADTAVYYCTRPVVRYFGWFDPWGQGTLVTVSS
VL: AIQLTQSPSSLSASVGDRVTITCRASQGISSALAWYQQKPGKAPKLLIYDASNLESGVPSRFSGSGSGTDFTLTISSLQPEDFATYYCQQFNSYPTFGQGTKVEIK
notes: Chimeric heavy chain constant region: CH1 and hinge from human IgG1 (N5KG1), CH2 and CH3 from human IgG4 (N5KG4PE); also called IgG[1/1/4/4]; N5KG1144 with 4D11 variable regions
B2: 4D11-G[4/4/1/1] (antibody, V domains shown)
VH: B1 VH
VL: B1 VL
notes: Chimeric heavy chain constant region: CH1 and hinge from human IgG4 (N5KG4PE, with S228P and L235E), CH2 and CH3 from human IgG1 (N5KG1); also called IgG[4/4/1/1]; N5KG4411 with 4D11 variable regions
B3: 4D11-G[4/4/1/4] (antibody, V domains shown)
VH: B1 VH
VL: B1 VL
notes: Chimeric heavy chain constant region: CH1 and hinge from human IgG4 (N5KG4PE, with S228P and L235E), CH2 from human IgG1, CH3 from human IgG4; also called IgG[4/4/1/4]; N5KG4414 with 4D11 variable regions
B4: 4D11-G[4/4/4/1] (antibody, V domains shown)
VH: B1 VH
VL: B1 VL
notes: Chimeric heavy chain constant region: CH1, hinge and CH2 from human IgG4 (N5KG4PE, with S228P and L235E), CH3 from human IgG1; also called IgG[4/4/4/1]; N5KG4441 with 4D11 variable regions

What follows are binders tested against T1, CD40 (UniProt P25942 21-277, limits assumed) (assay: flow cytometry on Ramos cells, R-PE anti-human antibody).
T1 construct: whole, on cells; also called CD40 on Ramos cells
T1 sequence (P25942 21-277 limits assumed): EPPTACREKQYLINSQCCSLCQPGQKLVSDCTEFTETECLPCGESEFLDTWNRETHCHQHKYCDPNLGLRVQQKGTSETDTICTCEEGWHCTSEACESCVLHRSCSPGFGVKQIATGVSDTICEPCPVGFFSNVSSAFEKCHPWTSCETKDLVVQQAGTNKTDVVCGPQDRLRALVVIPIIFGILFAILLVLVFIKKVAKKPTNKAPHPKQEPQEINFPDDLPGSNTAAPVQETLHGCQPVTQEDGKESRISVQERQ
Procedure: A Ramos cell line was suspended in a PBS staining buffer (SB) containing 0.1% NaN₃ and 2% FCS at a concentration of 2×10⁶/ml. The cell suspension (100 μl/well) was dispensed into wells of a 96-well round-bottom plate (manufactured by Becton, Dickinson and Company). Each hybridoma culture supernatant (50 μl) was added thereto, followed by incubation at a temperature below freezing for 30 minutes. A human IgG1 antibody to human serum albumin as a negative control was adjusted to a concentration of 2 μg/ml in a hybridoma culture medium. The medium (50 μl) was added to the plate, followed by incubation at a temperature below freezing for 15 minutes. After washing the plate with SB, 50 μl of a 250-fold diluted R-PE fluorescently labeled anti-human antibody (Southern Biotechnology Associates, Inc.) was added to the plate, followed by incubation at a temperature below freezing for 15 minutes. After washing with SB twice, the plate was suspended in 300 to 500 μl of a FACS buffer, and the fluorescence intensity of each cell was measured using FACS (FACSort, FACScan, manufactured by Becton, Dickinson and Company).

Binding result, binds:
B1
B2
B3
B4
